Assay results published in article PMC4148193, “Chromatin Insulator Factors Involved in Long-Range DNA Interactions and Their Role in the Folding of the Drosophila Genome” (PLoS Genetics, 2014).

Assays:
[1] = molecular target: T1, BEAF32 (BEAF32B);CP190 (Drosophila;Drosophila, UniProt Q94513;Q24478 1-282;1-1096, |); assay: FCS/PIE-FCCS; 400 nM BEAF32, 50 nM CP190; cross-correlation 18±6%, 65±22% of complexes bridged; FA/FCS: 30 mM Tris/HCl pH 7.5, 100 mM NaCl, 20 uM ZnSO4, 5 mM mercaptoethanol, 0.01 mg/ml BSA, 0.004% Tween20, 2.5 nM DNA; EMSA: 150 mM NaCl, 30 mM Tris/HCl pH; details: protein: recombinant;recombinant; tags: N-term MBP; C-term 6xHis;N-term 6xHis; blunt
T1 sequence 1: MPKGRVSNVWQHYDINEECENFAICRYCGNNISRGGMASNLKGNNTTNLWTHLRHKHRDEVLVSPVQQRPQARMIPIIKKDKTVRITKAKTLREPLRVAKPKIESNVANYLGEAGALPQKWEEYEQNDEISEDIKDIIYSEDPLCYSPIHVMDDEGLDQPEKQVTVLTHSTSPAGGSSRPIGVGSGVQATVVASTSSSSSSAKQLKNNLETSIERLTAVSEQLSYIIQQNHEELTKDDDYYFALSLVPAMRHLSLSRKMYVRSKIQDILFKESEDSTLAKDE
T1 sequence 2: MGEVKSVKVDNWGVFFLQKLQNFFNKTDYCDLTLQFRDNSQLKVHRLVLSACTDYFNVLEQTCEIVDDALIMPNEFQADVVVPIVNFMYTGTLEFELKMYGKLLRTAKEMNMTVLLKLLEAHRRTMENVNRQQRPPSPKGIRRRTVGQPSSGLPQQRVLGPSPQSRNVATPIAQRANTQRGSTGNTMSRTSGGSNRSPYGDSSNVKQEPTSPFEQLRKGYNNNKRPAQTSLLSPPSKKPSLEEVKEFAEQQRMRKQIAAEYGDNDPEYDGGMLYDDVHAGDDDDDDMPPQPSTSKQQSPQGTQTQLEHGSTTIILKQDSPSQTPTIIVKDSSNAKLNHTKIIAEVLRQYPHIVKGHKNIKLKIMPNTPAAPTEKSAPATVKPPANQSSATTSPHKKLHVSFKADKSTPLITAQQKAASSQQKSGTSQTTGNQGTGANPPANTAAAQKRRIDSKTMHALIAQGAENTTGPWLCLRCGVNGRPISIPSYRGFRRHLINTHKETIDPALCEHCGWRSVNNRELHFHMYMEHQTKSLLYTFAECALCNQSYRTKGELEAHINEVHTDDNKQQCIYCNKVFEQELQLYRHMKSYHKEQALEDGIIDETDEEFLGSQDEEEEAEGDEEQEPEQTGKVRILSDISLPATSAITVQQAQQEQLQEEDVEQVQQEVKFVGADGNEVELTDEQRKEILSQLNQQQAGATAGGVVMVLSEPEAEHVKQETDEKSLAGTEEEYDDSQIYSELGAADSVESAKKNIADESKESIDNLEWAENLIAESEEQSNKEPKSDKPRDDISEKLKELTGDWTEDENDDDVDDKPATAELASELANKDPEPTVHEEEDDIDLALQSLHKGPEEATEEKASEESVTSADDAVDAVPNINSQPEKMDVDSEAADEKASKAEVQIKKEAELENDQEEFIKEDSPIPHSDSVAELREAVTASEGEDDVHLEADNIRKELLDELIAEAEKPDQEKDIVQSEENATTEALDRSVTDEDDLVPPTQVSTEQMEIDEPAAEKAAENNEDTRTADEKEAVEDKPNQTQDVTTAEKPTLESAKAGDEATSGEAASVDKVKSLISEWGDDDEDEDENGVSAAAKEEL

[2] = molecular target: T2, BEAF32 (BEAF32B);Chromator (Drosophila;Drosophila, UniProt Q94513;Q86BS3 1-282;1-926, |); assay: FCS/PIE-FCCS; 800 nM BEAF32, 100 nM Chromator; cross-correlation 13±4%, 47±14% of complexes bridged; FA/FCS: 30 mM Tris/HCl pH 7.5, 100 mM NaCl, 20 uM ZnSO4, 5 mM mercaptoethanol, 0.01 mg/ml BSA, 0.004% Tween20, 2.5 nM DNA; EMSA: 150 mM NaCl, 30 mM Tris/HCl pH; details: protein: recombinant;recombinant; tags: N-term MBP; C-term 6xHis;N-term 6xHis; blunt
T2 sequence 1: T1 sequence 1
T2 sequence 2: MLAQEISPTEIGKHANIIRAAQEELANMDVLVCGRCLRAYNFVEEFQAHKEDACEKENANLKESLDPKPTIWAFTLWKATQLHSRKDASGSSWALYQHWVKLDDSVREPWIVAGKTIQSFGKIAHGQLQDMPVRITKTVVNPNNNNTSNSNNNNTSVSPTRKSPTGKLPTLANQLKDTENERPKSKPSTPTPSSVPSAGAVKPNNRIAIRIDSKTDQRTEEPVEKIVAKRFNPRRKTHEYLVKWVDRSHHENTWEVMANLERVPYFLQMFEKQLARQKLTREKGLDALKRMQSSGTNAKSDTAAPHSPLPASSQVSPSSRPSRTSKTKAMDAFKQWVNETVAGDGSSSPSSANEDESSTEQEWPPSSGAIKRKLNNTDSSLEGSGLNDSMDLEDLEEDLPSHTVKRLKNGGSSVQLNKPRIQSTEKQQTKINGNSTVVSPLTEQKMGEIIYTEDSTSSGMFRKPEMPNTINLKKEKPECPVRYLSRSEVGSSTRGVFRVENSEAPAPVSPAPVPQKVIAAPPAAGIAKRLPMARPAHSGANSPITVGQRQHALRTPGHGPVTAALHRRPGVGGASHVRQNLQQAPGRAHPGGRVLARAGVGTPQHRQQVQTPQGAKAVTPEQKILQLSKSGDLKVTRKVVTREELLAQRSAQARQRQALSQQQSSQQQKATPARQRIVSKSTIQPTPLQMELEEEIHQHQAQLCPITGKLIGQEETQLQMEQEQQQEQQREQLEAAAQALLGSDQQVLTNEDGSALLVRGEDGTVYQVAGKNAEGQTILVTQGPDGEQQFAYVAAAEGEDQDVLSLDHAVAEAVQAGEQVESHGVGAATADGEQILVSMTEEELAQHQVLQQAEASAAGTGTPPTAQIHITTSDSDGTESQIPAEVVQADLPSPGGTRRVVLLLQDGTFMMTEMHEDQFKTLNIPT

B1: DNAS (dsDNA)
DNA 1: AGAAGTCAGCGCGATAGCATCGATATTTTCGTGACACGCTTGTCATCCGATAGGTAGT
DNA 2: ACTACCTATCGGATGACAAGCGTGTCACGAAAATATCGATGCTATCGCGCTGACTTCT
[1]
  binding result: binds
[2]
  binding result: binds
